Reference: US20100075897A1, “METHOD FOR S[…] BIOACTIVE PEPTIDES AND APPLICATION THEREOF” (JINAN UNIVERSITY, priority 2008, published 2010)
Where a chain is given by its changes, count along the chain named. Where two headings read alike, the source gives them in different places. Ends that are not written are not given here.

B1: Phage ID NO. 4 (M13 phage displaying the peptide of SEQ ID NO. 4, NICLPRWGCLWD) (peptide)
peptide: NICLPRWGCLWD
modifications: not fully specified (bridges); cysteine pairing not given here; also: displayed on M13 phage coat protein
notes: Tested as whole phage particles, not as free peptide; not shown: not described
B2: M3.1 fusion polypeptide (peptide)
peptide: DICLPRWGCLWEFNPRGAHAEGTFTSDVSSYLEGQAAKEFIAWLVKGRG
notes: ABP-LK-GLP fusion polypeptide; also called ABP-LK-GLP
B3: M4.2 fusion polypeptide (peptide)
peptide: B2 peptide with D1N, E12D, A18P
notes: as for B2
B4: M3.2 fusion polypeptide (peptide)
peptide: B2 peptide with A18P
notes: as for B2
B5: M4.3 fusion polypeptide (peptide)
peptide: B2 peptide with D1N, E12D, A18S
notes: as for B2
B6: DP8.1 fusion polypeptide (peptide)
peptide: PSLLHWTHKIPALFNPRGAHAEGTFTSDVSSYLEGQAAKEFIAWLVKGRG
notes: as for B2
B7: DP8.2 fusion polypeptide (peptide)
peptide: B6 peptide with A19P
notes: as for B2
B8: Phage ID NO. 1 (M13 phage displaying the peptide of SEQ ID NO. 1, NVCLPKWGCLWE) (peptide)
peptide: NVCLPKWGCLWE
modifications: not fully specified (bridges); cysteine pairing not given here; also: displayed on M13 phage coat protein
notes: as for B1
B9: Phage ID NO. 5 (M13 phage displaying the peptide of SEQ ID NO. 5, LPWHLKYREPPR) (peptide)
peptide: LPWHLKYREPPR
modifications: also: displayed on M13 phage coat protein
notes: as for B1
B10: Phage ID NO. 2 (M13 phage displaying the peptide of SEQ ID NO. 2, DVCLPQWGCLWG) (peptide)
peptide: DVCLPQWGCLWG
modifications: not fully specified (bridges); cysteine pairing not given here; also: displayed on M13 phage coat protein
notes: as for B1
B11: DP6.1 fusion polypeptide (peptide)
peptide: PLPHSHRAHSLPPFNPRGAHAEGTFTSDVSSYLEGQAAKEFIAWLVKGRG
notes: as for B2
B12: DP6.2 fusion polypeptide (peptide)
peptide: B11 peptide with A19P
notes: as for B2
B13: M8.1 fusion polypeptide (peptide)
peptide: SLLHWTHKIPALFNPRGAHAEGTFTSDVSSYLEGQAAKEFIAWLVKGRG
notes: as for B2
B14: M8.2 fusion polypeptide (peptide)
peptide: B13 peptide with A18P
notes: as for B2
B15: M8.3 fusion polypeptide (peptide)
peptide: B13 peptide with A18S
notes: as for B2
B16: Phage ID NO. 7 (M13 phage displaying the peptide of SEQ ID NO. 7, SLFRHQHATPQI) (peptide)
peptide: SLFRHQHATPQI
modifications: also: displayed on M13 phage coat protein
notes: as for B1
B17: DP4.3 fusion polypeptide (peptide)
peptide: PNICLPRWGCLWDFNPRGSHAEGTFTSDVSSYLEGQAAKEFIAWLVKGRG
notes: as for B2
B18: DP3.2 fusion polypeptide (peptide)
peptide: B17 peptide with N2D, D13E, S19P
notes: as for B2
B19: DP4.1 fusion polypeptide (peptide)
peptide: B17 peptide with S19A
notes: as for B2
B20: DP3.3 fusion polypeptide (peptide)
peptide: B17 peptide with N2D, D13E
notes: as for B2
B21: DP3.1 fusion polypeptide (peptide)
peptide: B17 peptide with N2D, D13E, S19A
notes: as for B2
B22: M6.1 fusion polypeptide (peptide)
peptide: LPHSHRAHSLPPFNPRGAHAEGTFTSDVSSYLEGQAAKEFIAWLVKGRG
notes: as for B2
B23: PA6.2 fusion polypeptide (peptide)
peptide: B22 peptide with G17P
notes: as for B2
B24: M6.2 fusion polypeptide (peptide)
peptide: B22 peptide with A18P
notes: as for B2
B25: PP6.2 fusion polypeptide (peptide)
peptide: B22 peptide with G17P, A18P
notes: as for B2
B26: Phage ID NO. 6 (M13 phage displaying the peptide of SEQ ID NO. 6, LPHSHRAHSLPP) (peptide)
peptide: LPHSHRAHSLPP
modifications: also: displayed on M13 phage coat protein
notes: as for B1
B27: DP8.3 fusion polypeptide (peptide)
peptide: PSSLLHWTHKIPALFNPRGSHAEGTFTSDVSSYLEGQAAKEFIAWLVKGRG
notes: ABP-LK-GLP fusion polypeptide, copied as printed with PSS at the N-terminus (DP8.1 and DP8.2 have PS); also called ABP-LK-GLP

Assays:
GLP-1 receptor [1] = conditions: CHO/GLP-1R, competition with 125I-GLP-1; fusion polypeptides after treatment with thrombin and DPP IV; read-out: Receptor binding affinity IC50
Description: (§1) The actual experimental steps were extracted from method as described by Montrose-Rafizadeh with proper modification as following:
(§2) (2) After cultured, removing supernatant, washing cells with cold PBS for three times, and then mixing with 0.5 mL 0.5 mol/L NaOH and 0.1% (mg/mL) SDS for 10 minutes. Irradiation of the cell lysis was determined by Apec-Series […] (ICN Biomedicals, Inc., Costa Mesa, Calif.).

GLP-1 receptor [2] = type: cell-based; conditions: CHO/GLP-1R, 30 minutes; GLP-1 released from ABP-LK-GLP; read-out: cAMP production EC50
Description: Samples were rotated and then centrifuged for 5 minutes (2000 g, 4° C.) to acquire precipitation. Supernatant was removed by vacuum and then the precipitation was dissolved into 300 μL of […] Tris buffer (pH7.5, containing […] EDTA), added with sodium bicarbonate (0.15 mg/mL) and zinc sulfate (0.15 mg/mL), followed by being placed on ice for 15 minutes. Centrifugation was performed at 2000 g at 4° C. for […] to remove precipitation and obtain a supernatant. The supernatant was analyzed with [^3H] cAMP competition assay kit (Amersham Biotech, QC).

human serum albumin [3] = molecular target: T1, human serum albumin (human, UniProt P02768 25-609); assay: phage ELISA on plate-coated HSA, sample row, dilution column 1 of 12
T1 construct: Bought protein; coated on plates (ELISA) or coupled to a CM5 chip (SPR); also called HSA; human albumin
T1 sequence (P02768 25-609 limits assumed): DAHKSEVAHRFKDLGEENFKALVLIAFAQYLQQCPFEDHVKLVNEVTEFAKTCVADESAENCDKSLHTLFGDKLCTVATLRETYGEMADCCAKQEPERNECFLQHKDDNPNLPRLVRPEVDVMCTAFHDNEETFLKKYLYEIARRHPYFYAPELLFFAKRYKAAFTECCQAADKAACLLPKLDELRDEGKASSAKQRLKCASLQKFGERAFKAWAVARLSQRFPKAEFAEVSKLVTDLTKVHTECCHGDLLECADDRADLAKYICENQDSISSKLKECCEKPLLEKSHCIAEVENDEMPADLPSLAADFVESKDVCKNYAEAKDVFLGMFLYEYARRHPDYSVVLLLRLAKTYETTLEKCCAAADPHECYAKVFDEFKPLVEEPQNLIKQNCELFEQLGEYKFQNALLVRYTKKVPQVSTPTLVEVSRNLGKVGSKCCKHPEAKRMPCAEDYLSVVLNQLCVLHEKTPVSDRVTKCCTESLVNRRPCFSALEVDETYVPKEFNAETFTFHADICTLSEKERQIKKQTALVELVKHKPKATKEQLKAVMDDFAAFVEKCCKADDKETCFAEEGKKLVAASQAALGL

human serum albumin [4] = molecular target: T1, human serum albumin; assay: phage ELISA on plate-coated HSA, Table 3 absorbance (sample minus blank), dilution column 2 of 12
GLP-1 receptor [5] = molecular target: T2, GLP-1 receptor; assay: cell-based or functional assay
T2 chain: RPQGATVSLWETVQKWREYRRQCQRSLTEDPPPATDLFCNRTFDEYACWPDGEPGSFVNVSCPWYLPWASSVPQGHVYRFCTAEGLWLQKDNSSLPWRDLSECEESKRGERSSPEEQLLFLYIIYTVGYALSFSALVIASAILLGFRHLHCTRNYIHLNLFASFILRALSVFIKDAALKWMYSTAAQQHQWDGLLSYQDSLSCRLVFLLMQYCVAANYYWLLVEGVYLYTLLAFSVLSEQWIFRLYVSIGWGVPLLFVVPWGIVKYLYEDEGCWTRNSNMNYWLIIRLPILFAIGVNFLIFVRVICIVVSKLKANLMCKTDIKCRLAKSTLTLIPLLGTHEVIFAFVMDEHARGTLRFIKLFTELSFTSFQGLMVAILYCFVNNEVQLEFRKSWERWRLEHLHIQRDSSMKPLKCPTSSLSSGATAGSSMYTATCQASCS

GLP-1 receptor [6] = molecular target: T2, GLP-1 receptor; assay: competition with 125I-GLP-1 on CHO/GLP-1R cells; polypeptide digested with thrombin and DPP IV first
Description: as §1, §2

human serum albumin [7] = molecular target: T1, human serum albumin; assay: phage ELISA on plate-coated HSA, sample row, dilution column 2 of 12
human serum albumin [8] = molecular target: T1, human serum albumin; assay: phage ELISA on plate-coated HSA, Table 3 absorbance (sample minus blank), dilution column 1 of 12
human serum albumin [9] = molecular target: T1, human serum albumin; assay: phage ELISA on plate-coated HSA, Table 3 absorbance (sample minus blank), dilution column 6 of 12
human serum albumin [10] = molecular target: T1, human serum albumin; assay: phage ELISA on plate-coated HSA, Table 3 absorbance (sample minus blank), dilution column 3 of 12
human serum albumin [11] = molecular target: T1, human serum albumin; assay: phage ELISA on plate-coated HSA, Table 3 absorbance (sample minus blank), dilution column 7 of 12
GLP-1 receptor [12] = molecular target: T2, GLP-1 receptor; assay: competition with 125I-GLP-1 on CHO/GLP-1R cells

Molecule	cAMP production EC50 (GLP-1 receptor [5])	IC50 (GLP-1 receptor [6])	other results
LPHSHRAHSLPPFNPRPA HAEGTFTSDVSSYLEGQAAKEFIAWLVKGRG [PA6.2]			IC50 (GLP-1 receptor [1]): 2.2 ± 0.7 nM; EC50 (GLP-1 receptor [2]): 23 ± 2.4 nM
PLPHSHRAHSLPPFNPRGP HAEGTFTSDVSSYLEGQAAKEFIAWLVKGRG [DP6.2]			IC50 (GLP-1 receptor [1]): 2.1 ± 0.8 nM; EC50 (GLP-1 receptor [2]): 23 ± 2.1 nM
PDICLPRWGCLWEFNPRGA HAEGTFTSDVSSYLEGQAAKEFIAWLVKGRG [DP3.1]			IC50 (GLP-1 receptor [1]): 2.1 ± 0.5 nM; EC50 (GLP-1 receptor [2]): 23 ± 2 nM
LPHSHRAHSLPPFNPRPP HAEGTFTSDVSSYLEGQAAKEFIAWLVKGRG [PP6.2]			IC50 (GLP-1 receptor [1]): 2.3 ± 0.8 nM; EC50 (GLP-1 receptor [2]): 21 ± 2.1 nM
PNICLPRWGCLWDFNPRGA HAEGTFTSDVSSYLEGQAAKEFIAWLVKGRG [DP4.1]			IC50 (GLP-1 receptor [1]): 2.5 ± 0.8 nM; EC50 (GLP-1 receptor [2]): 19 ± 2.1 nM
PSSLLHWTHKIPALFNPRGS HAEGTFTSDVSSYLEGQAAKEFIAWLVKGRG [DP8.3]			IC50 (GLP-1 receptor [1]): 2.5 ± 0.6 nM; EC50 (GLP-1 receptor [2]): 23 ± 2.2 nM
B1			absorbance at 405 nm (human serum albumin [3]): 0.08; absorbance at 405 nm (human serum albumin [4]): 0.04
B2	22 nM	2.2 nM	
B3	21 nM	2.2 nM	
B4	21 nM	2.1 nM	
B5	19 nM	2.2 nM	
B6	24 nM	2.2 nM	
B7	22 nM	1.9 nM	
B8			absorbance at 405 nm (human serum albumin [7]): 0.09; absorbance at 405 nm (human serum albumin [8]): 0.04
B9			absorbance at 405 nm (human serum albumin [9]): 0.08
B10			absorbance at 405 nm (human serum albumin [10]): 0.04
B11	23 nM	2 nM	
B12	23 nM	2.1 nM	

Molecule	cAMP production EC50 (GLP-1 receptor [5])	IC50 (GLP-1 receptor [6])	other results
B13	24 nM	2.2 nM	
B14	21 nM	1.9 nM	
B15	21 nM	2.2 nM	
B16			absorbance at 405 nm (human serum albumin [7]): 0.08; absorbance at 405 nm (human serum albumin [11]): 0.1; absorbance at 405 nm (human serum albumin [3]): 0.08
FNPRHAEGTFTSDVSSYLEGQAAKEFIAWLVKGRG (GLP-1(7-37) with N-terminal FNPR) [FN-GLP]	> 1000 nM		IC50 (GLP-1 receptor [12]): 450 nM
LVPRHAEGTFTSDVSSYLEGQAAKEFIAWLVKGRG (GLP-1(7-37) with N-terminal LVPR) [LV-GLP]	> 1000 nM		IC50 (GLP-1 receptor [12]): 467 nM
B17	18 nM	2.1 nM	
B18	19 nM	2.3 nM	
B19	19 nM	2.5 nM	
B20	21 nM	2.3 nM	
B21	23 nM	2.1 nM	
B22	24 nM	2.2 nM	
B23	23 nM	2.2 nM	
B24	21 nM	2.3 nM	
B25	21 nM	2.3 nM	
B26			absorbance at 405 nm (human serum albumin [7]): 0.09; absorbance at 405 nm (human serum albumin [10]): 0.05
B27	23 nM	2.5 nM	
